This is an account of results in patent US20170360931A1 (UNIVERSITY OF CHICAGO, published 2017).

What all share (test): cell-based or functional assay
Assay [1] addresses HA of wild type A/Shanghai/1/2013 (H7N9) virus (influenza A virus A/Shanghai/1/2013 …).
The target in assay [2] is HA of A/chicken/Jalisco/12283/12 (H7N3) virus (influenza A virus …).
For assay [3], the target named is HA of A/California/04/2009 (H1N1) virus (influenza A virus A/California/04/2009 …).

B1: 045-051310-2B06 (antibody, V domains shown)
VH: QVQLVQSGPEMKKPGASVKVSCKTSGYRFTRYGISWVRQAPGRGLEWLGWISAYSGDTYYGQKFQDRVTMTTDRATSTAYMELRNLGSDDSAVYFCARDHVQGEVSIYYYAMDVWGEGTTVTVSS
VL: EIVLTQSPATLSLSPGERVTLSCRASESVGNKLAWFQQRPGQAPRLLIYNASNRATDIPARFSGSGSGTDFTLTISSLQPEDFAVYYCQQRGTWPRGLITFGQGTRLEIK
Turning to B1, the “PRNT50 (plaque reduction assay)” value in assay [1] was found to be 19 µg/mL; in assay [2] it was 18 µg/mL; in assay [3], 5.5 µg/mL.
